Source: patent publication US8771644B2, “Imaging probes” (Sanofi, priority 2007, dated 2014)

Experiments:
Format in all cases: biochemical
[1] = test system: CN(C)c1ccc(/N=N/c2ccc(C(=O)NCCCC[C@H](NC(=O)[C@H](CCC(=O)NCCNc3cccc4c(S(=O)(=O)O)cccc34)NC(=O)[C@H](CC3CCCCC3)NC(=O)N3CCOCC3)C(=O)O)cc2)cc1; assay: in vitro activity assay (fluorescence, substrate cleavage) with Cath B; settings: other: Cath B; measurement performed at pH 7.5; pH 7.5; 37.0 °C
Method: (§1) […] The substrates were solved in DMSO and added to enzyme solution with a final concentration of 50 μM.
(§2) Fluorescence was measured with an Tecan SAFIRE II spectrometer (excitation wavelength: 336 nm; emission wavelength: 490 nm; excitation band: 10.0 nm; emission band: 10.0 nm; amplification (manual): 90).

[2] = test system: CN(C)c1ccc2c(c1)Oc1cc(N(C)C)ccc1C21OC(=O)c2cc(C(=O)NCC[C@H](NC(=O)[C@H](CC3CCCCC3)NC(=O)N3CCOCC3)C(=O)NCCNC(=O)c3ccc(-c4c5ccc(=O)cc-5oc5cc(O)ccc45)c(C(=O)O)c3)ccc21; assay: as above; settings: other: Cath B; measurement performed at pH 5.5; pH 5.5; 37.0 °C
Method: as §1, §2

[3] = test system: CN(C)c1ccc(/N=N/c2ccc(C(=O)NCCCC[C@H](NC(=O)[C@H](CCC(=O)NCCNc3cccc4c(S(=O)(=O)O)cccc34)NC(=O)[C@H](CC3CCCCC3)NC(=O)N3CCOCC3)C(=O)O)cc2)cc1; assay: in vitro activity assay (fluorescence, substrate cleavage) with Cath L; settings: other: Cath L; measurement performed at pH 7.5; pH 7.5; 37.0 °C
Method: as §1, §2

[4] = test system: CN(C)c1ccc2c(c1)Oc1cc(N(C)C)ccc1C21OC(=O)c2cc(C(=O)NCC[C@H](NC(=O)[C@H](CC3CCCCC3)NC(=O)N3CCOCC3)C(=O)NCCNC(=O)c3ccc(-c4c5ccc(=O)cc-5oc5cc(O)ccc45)c(C(=O)O)c3)ccc21; assay: as above; settings: other: Cath L; measurement performed at pH 5.5; pH 5.5; 37.0 °C
Method: as §1, §2

Chain of Cath L (Homo sapiens) (chain, as listed by the source): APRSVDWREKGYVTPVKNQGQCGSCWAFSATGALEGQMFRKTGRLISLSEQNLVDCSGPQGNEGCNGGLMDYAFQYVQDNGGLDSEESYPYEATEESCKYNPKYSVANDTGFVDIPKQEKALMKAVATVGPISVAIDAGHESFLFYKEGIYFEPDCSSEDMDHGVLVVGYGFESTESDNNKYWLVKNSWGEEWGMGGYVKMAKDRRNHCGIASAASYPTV

## Cath B (Homo sapiens)
[1]
  Km: 0.12 mM
  Vmax: 0.006 µmol/min
  kcat/Km: 250 M⁻¹ s⁻¹
[2]
  Km: 0.88 mM
  Vmax: 0.156 µmol/min
  kcat: 0.25 s⁻¹

## Cath L (Homo sapiens)
[3]
  Km: 8.3 mM
  Vmax: 0.27 µmol/min
  kcat: 1.26 s⁻¹
  kcat/Km: 152 M⁻¹ s⁻¹
[4]
  Km: 7.1 mM
  Vmax: 0.582 µmol/min
  kcat: 3.01 s⁻¹
